Assay results as given in publication PMC5045929, “Norovirus-Specific Memory T Cell Responses in Adult Human Donors” (Frontiers in Microbiology, 2016).

Biological target: the molecule itself
Assay: negative-stain electron microscopy; sucrose gradient-purified VLPs from baculovirus-infected Sf9 cells, negatively stained with 3% uranyl acetate (pH 4.5), 23,000x

B1: Norovirus GII.4 Sydney capsid protein VP1 (virus-like particles) (natural protein)
chain: MKMASSDANPSDGSAANLVPEVNNEVMALEPVVGAAIAAPVAGQQNVIDPWIRNNFVQAPGGEFTVSPRNAPGEILWSAPLGPDLNPYLSHLARMYNGYAGGFEVQVILAGNAFTAGKVIFAAVPPNFPTEGLSPSQVTMFPHIVVDVRQLEPVLIPLPDVRNNFYHYNQSNDPTIKLIAMLYTPLRANNAGDDVFTVSCRVLTRPSPDFDFIFLVPPTVESRTKPFSVPVLTVEEMTNSRFPIPLEKLFTGPSSAFVVQPQNGRCTTDGVLLGTTQLSPVNICTFRGDVTHITGSRNYTMNLASQNWNDYDPTEEIPAPLGTPDFVGKIQGVLTQTTRTDGSTRGHKATVYTGSADFAPKLGRVQFETDTDRDFEANQNTKFTPVGVIQDGGTTHRNEPQQWVLPSYSGRNTHNVHLAPAVAPTFPGEQLLFFRSTMPGCSGYPNMDLDCLLPQEWVQYFYQEAAPAQSDVALLRFVNPDTGRVLFECKLHKSGYVTVAHTGQHDLVIPPNGYFRFDSWVNQFYTLAPMGNGTGRRRAV
notes: The VP1 gene was cloned; also called GII.4 SYD VLP; GII.4-2012 (Sydney); source: Sf9 insect cells (baculovirus, pFastBac1), purified by two discontinuous sucrose gradient ultracentrifugations
- binding result: binds
